The text below walks through data of the Immune Epitope Database (IEDB).

The target in one assay is HLA-B*44:02. In words: IEDB peptide-MHC binding, purified MHC/competitive/radioactivity; filed as Kd, often an IC50 or EC50 that approximates it; ≥ and ≤ were set here for values at or beyond the usual limits of such assays.
The target in another assay is HLA-B*44:03. The assay is described as above.
The target in a further assay is HLA-B*40:01. Described as above.
The next assay deals with HLA-A*30:02. The description is as above.
A further assay deals with HLA-A*01:01. The assay is described as above.
Assay [1] has as its target HLA-B*15:01. The assay is described as above.
For another assay, the target named is HLA-A*26:01. Described as above.
For another assay, the target named is HLA-A*02:01. The assay is described as above.
The target in the next assay is HLA-A*02:03. The assay is described as above.
A further assay deals with HLA-A*68:02. The assay is described as above.
The target of another assay is HLA-A*02:06. The description is as above.
The target in another assay is HLA-A*02:02. Described as above.
For another assay, the target named is HLA-A*24:03. In words: IEDB peptide-MHC binding, purified MHC/direct/fluorescence; filed as Kd, often an IC50 or EC50 that approximates it; ≥ and ≤ were set here for values at or beyond the usual limits of such assays. Particulars: source organism: Burkholderia mallei.
In another assay the target is HLA-B*53:01. Description: IEDB peptide-MHC binding, purified MHC/competitive/radioactivity; filed as Kd, often an IC50 or EC50 that approximates it; ≥ and ≤ were set here for values at or beyond the usual limits of such assays.
The target of assay [2] is HLA-B*15:01. Description: IEDB peptide-MHC binding, purified MHC/competitive/fluorescence; filed as Kd, often an IC50 or EC50 that approximates it; ≥ and ≤ were set here for values at or beyond the usual limits of such assays. Particulars: source organism: Human immunodeficiency virus 1.
The target in the next assay is HLA-A*03:01. In words: IEDB peptide-MHC binding, purified MHC/competitive/radioactivity; filed as Kd, often an IC50 or EC50 that approximates it; ≥ and ≤ were set here for values at or beyond the usual limits of such assays. The settings on record: source organism: Dengue virus 2 Jamaica/1409/1983.
For another assay, the target named is HLA-A*11:01. The assay is described as above. The settings on record: source organism: Dengue virus 2 Jamaica/1409/1983.
Another assay has as its target HLA-B*46:01. Description: IEDB peptide-MHC binding, purified MHC/competitive/fluorescence; filed as Kd, often an IC50 or EC50 that approximates it; ≥ and ≤ were set here for values at or beyond the usual limits of such assays. The settings on record: source organism: Vibrio vulnificus CMCP6.
The next assay has as its target HLA-A*32:01. In words: IEDB peptide-MHC binding, purified MHC/competitive/radioactivity; filed as Kd, often an IC50 or EC50 that approximates it; ≥ and ≤ were set here for values at or beyond the usual limits of such assays. Particulars: source organism: Vaccinia virus Copenhagen.
Where [3] appears, read: source organism: Dengue virus 4 Philippines/H241/1956.
Setting [4] is: source organism: Dengue virus 3 Sri Lanka/1266/2000.
Where [5] appears, read: source organism: Trypanosoma cruzi.
Setting [6] is: source organism: Dengue virus 1 Brazil/97-11/1997.
Where [7] appears, read: source organism: Dengue virus 3 Martinique/1243/1999.
Where [8] appears, read: source organism: Vaccinia virus WR.
The mark [9] stands for this setting: source organism: Dengue virus 2 Jamaica/1409/1983.
[10] abbreviates: source organism: HIV-1 M:B_ARV2/SF2.

Take VEMGEAAAI: the Kd was 12.9 nM in the assay with HLA-B*44:02 (setting [3]), 27.7 nM with HLA-B*44:03 (setting [3]) and 134 nM in the assay with HLA-B*40:01 (setting [3]).
For LEPPFGDSYI, in the assay with HLA-B*40:01 (setting [3]), the Kd is 6420 nM.
Consider LLIVSGIFPY, for which the Kd was at least 60000 nM with HLA-A*30:02 (setting [4]), 7500 nM with HLA-A*01:01 (setting [4]), 2.26 nM with HLA-B*15:01 [1] (setting [4]) and 11200 nM with HLA-A*26:01 (setting [4]).
Take ITQLMPFGC: the Kd with HLA-A*02:01 (source organism: Homo sapiens) was found to be 6290 nM.
On to DVSRPTTVM, for which the Kd with HLA-A*02:03 (setting [5]) was 15400 nM; with HLA-A*68:02 (setting [5]), 1010 nM; with HLA-A*02:06 (setting [5]), 15000 nM; with HLA-A*02:01 (setting [5]), at least 69400 nM; in the assay with HLA-A*02:02 (setting [5]), at least 33600 nM.
On to ESITLATGPL, for which the Kd was 101 nM with HLA-A*68:02 (setting [6]) and 1990 nM with HLA-A*26:01 (setting [6]).
Turning to RYPAIAGGI, the Kd with HLA-A*24:03 amounted to 3.3 nM.
With PPVSDLKYSW, in the assay with HLA-B*53:01 (source organism: Dengue virus 4 Dominica/814669/1981), the Kd was 1580 nM.
AAGLQDCTM: the Kd with HLA-A*02:01 (source organism: Hepatitis C virus (isolate 1)) was at least 50000 nM.
VTRGAVLTY: the Kd with HLA-A*30:02 (setting [7]) is at least 76900 nM; with HLA-A*01:01 (setting [7]) it was 3110 nM; in the assay with HLA-B*15:01 [1] (setting [7]), 30 nM.
In the case of KEKVVGRII, in the assay with HLA-B*40:01 (setting [3]), the Kd came out at 2860 nM.
Turning to MMLVPLITV, the Kd with HLA-A*02:03 (setting [8]) is at least 52100 nM; with HLA-A*68:02 (setting [8]), 5160 nM; with HLA-A*02:06 (setting [8]), at least 77100 nM; in the assay with HLA-A*02:02 (setting [8]) it was 1020 nM.
Sequence ILGLNKIVRMY yielded a Kd in the assay with HLA-B*15:01 [2] of at least 20000 nM.
Consider GLDLQPCIDL, for which, in the assay with HLA-A*68:02 (source organism: Homo sapiens), the Kd is at least 60000 nM.
In the case of TIMAAILAY, the Kd is 28.8 nM in the assay with HLA-A*03:01; 117 nM with HLA-A*30:02 (setting [9]); 164 nM in the assay with HLA-A*11:01; at least 26600 nM with HLA-A*01:01 (setting [9]); 73.3 nM with HLA-B*15:01 [1] (setting [9]); 156 nM with HLA-A*26:01 (setting [9]).
As for NAVILQNAW, the Kd with HLA-B*53:01 (setting [9]) came out at 80.6 nM.
LVGKLNWASQIY: the Kd in the assay with HLA-B*15:01 [2] was found to be 2210 nM.
Turning to ATMANEMGFL, the Kd with HLA-A*68:02 (setting [9]) is 68.4 nM.
Turning to FAIGDWEPY, the Kd in the assay with HLA-B*46:01 was found to be 74.1 nM.
LERAADVKW: the Kd in the assay with HLA-B*44:02 (setting [9]) was found to be 130 nM; in the assay with HLA-B*44:03 (setting [9]) it was 214 nM.
Turning to IETLMLLAL, the values for the Kd with HLA-B*44:02 (setting [6]) and in the assay with HLA-B*40:01 (setting [6]) were 1340 nM and 10.7 nM, respectively.
Consider MVYKLVLLF, for which the Kd in the assay with HLA-A*32:01 turned out to be 330 nM; with HLA-B*15:01 [1] (source organism: Vaccinia virus Copenhagen), 70.5 nM.
On to VSKKEGGAMY, for which the figures for the Kd in the assay with HLA-A*30:02 (setting [9]), in the assay with HLA-A*01:01 (setting [9]) and with HLA-B*15:01 [1] (setting [9]) were at least 69700 nM, 19900 nM and 84.8 nM, respectively.
Regarding KQITNELNY, the Kd is 9.99 nM with HLA-A*30:02 (setting [3]) and 7.56 nM with HLA-B*15:01 [1] (setting [3]).
For LMTGTLAVF, the Kd with HLA-B*15:01 [1] (setting [6]) turned out to be 0.4 nM.
Take MLNTYGEGF: the Kd with HLA-B*15:01 [1] (setting [8]) was 2.25 nM.
In the case of EMKTQLEEL, the Kd with HLA-A*02:03 (source organism: Homo sapiens) is 81.3 nM; with HLA-A*68:02 (source organism: Homo sapiens) it was 284 nM; in the assay with HLA-A*02:01 (source organism: Homo sapiens), at least 20800 nM.
On to FLGKIWPSYK, for which the Kd was 448 nM with HLA-A*02:03 (setting [10]); at least 41200 nM in the assay with HLA-A*68:02 (setting [10]); 3010 nM with HLA-A*02:06 (setting [10]); 89.9 nM with HLA-A*02:01 (setting [10]); 449 nM with HLA-A*02:02 (setting [10]).
As to NMALKKIREL, the Kd with HLA-A*68:02 (source organism: Homo sapiens) is at least 60000 nM.
